The values below come from article PMC3806850.

In experiment [1] the target is 5T4Fab(V18)-SEA (not stated | not stated (staphylococcal)) (UniProt P0A0L2). Description: SPR.
Experiment [2] has as its target C215Fab-SEE (not stated | not stated (staphylococcal)) (UniProt P12993). Briefly: SPR.

Sequence of UniProt P0A0L2 (P0A0L2 whole entry, looked up): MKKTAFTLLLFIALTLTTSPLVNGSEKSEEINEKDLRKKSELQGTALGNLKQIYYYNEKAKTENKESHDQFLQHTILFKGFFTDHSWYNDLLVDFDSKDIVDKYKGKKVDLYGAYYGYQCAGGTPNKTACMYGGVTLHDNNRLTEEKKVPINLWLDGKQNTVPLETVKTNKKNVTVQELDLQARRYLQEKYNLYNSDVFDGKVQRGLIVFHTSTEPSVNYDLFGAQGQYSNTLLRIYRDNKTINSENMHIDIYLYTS

In the case of “Recombinant soluble human MHC class II (HLA-DR1) in complex with HA peptide (from UniProt P01903) (peptide-MHC)”, in experiment [1], the Kd (usually the concentration at which binding is half-saturated) is 400 nM; the koff (usually the first-order rate constant of dissociation) stood at 0.0011 s⁻¹; the kon – broadly, a measure of how fast the partners come together – was 2800 M⁻¹ s⁻¹. Further, in experiment [2], the Kd worked out at 1300 nM, the koff came to 0.0029 s⁻¹ and the kon was 2300 M⁻¹ s⁻¹.
